Where a chain is given by its changes, count along the chain named. Names and notes keep the numbering of the source.
T1: human FcγRIIa, type R, extracellular domain, His-tagged (human, UniProt P12318 34-217)
T1 construct: extracellular domain; also called hFcγR IIa R
T1 sequence (looked up): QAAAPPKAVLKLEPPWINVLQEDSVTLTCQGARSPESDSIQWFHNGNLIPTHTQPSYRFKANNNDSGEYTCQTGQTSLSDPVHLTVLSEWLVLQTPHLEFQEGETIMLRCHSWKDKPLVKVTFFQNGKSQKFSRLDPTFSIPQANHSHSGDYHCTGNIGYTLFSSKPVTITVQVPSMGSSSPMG

T2: human FcγRIIa, type H, extracellular domain, His-tagged (human, UniProt P12318 34-217)
T2 construct: extracellular domain; also called hFcγR IIa H
T2 sequence (looked up): T1 sequence (looked up) with R134H

T3: human FcγRIIb extracellular domain, His-tagged (human, UniProt P31994 43-217)
T3 construct: extracellular domain; also called hFcγR IIb
T3 sequence (looked up): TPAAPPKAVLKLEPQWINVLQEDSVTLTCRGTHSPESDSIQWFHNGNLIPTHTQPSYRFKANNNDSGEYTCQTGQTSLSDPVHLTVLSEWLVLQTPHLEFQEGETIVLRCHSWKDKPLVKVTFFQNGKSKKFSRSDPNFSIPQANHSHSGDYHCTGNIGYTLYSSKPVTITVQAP

B1: 04H1654-KT461/04L1610-lam1//04H1656-HT443/04L1610-lam1 (antibody, human IgG1, lambda)
heavy 1: QVQLVESGGGVVQPGGSLRLSCAASGFTFSSKTMNWVRQAPGKGLEWVSSISTQSHYIYYARSVRGRFTISRDNAKNSLYLQMNSLRAEDTAVYYCARYGKREDMLWVFDYWGQGTLVTVSSASTKGPSVFPLAPSSKSTSGGTAALGCLVKDYFPEPVTVSWNSGALTSGVHTFPAVLQSSGLYSLSSVVTVPSSSLGTQTYICNVNHKPSNTKVDKRVEPKSCDKTHTCPPCPAPEFQWGPMVFLFPPKPKDVLMISRTPEVTCVVVDVSDEEPEVKFNWYVDGVEVHNAKTKPREEQYNATYRVVSVLPVLHQDWLNGKEYKCKVSNDALPAPEEKTISKAKGQPREPQVYTLPPSRKEMTKNQVSLTCLVKGFYPSDIAVEWESNGQPENNYKTTPPVLDSDGSFFLYSKLTVDKSRWQQGNVFSCSVMHEALHNHYTQKSLSLSP
heavy 2: B1 heavy 1 with R62E, K101A, F239L, Q240L, W241A, M244S, D273H, K339E, K361E, K444E
light: QSALTQPPSASGSPGQSVTISCEGPSTGVGDYNWVHWYQQHPGKAPKLMIYFTSKKPSGVPDRFSGSKSGNTASLTVSGLQAEDEADYYCQTYAAPLGPMFGGGTKLTVLGQPKAAPSVTLFPPSSEELQANKATLVCLISDFYPGAVTVAWKADSSPVKAGVETTTPSKQSNNKYAASSYLSLTPEQWKSHRSYSCQVTHEGSTVEKTVAPTECS
notes: Heterodimerized IgG1 (IGHG1*03) Fc variant
B2: 04H1654-KT481/04L1612-lam1//04H1656-HT498/04L1612-lam1 (antibody, IgG1)
heavy 1: B1 heavy 1 with N439A, Y441T, Q443R, S445E
heavy 2: QVQLVESGGGVVQPGGSLRLSCAASGFTFSSKTMNWVRQAPGKGLEWVSSISTQSHYIYYAESVRGRFTISRDNAKNSLYLQMNSLRAEDTAVYYCARYGAREDMLWVFDYWGQGTLVTVSSASTKGPSVFPLAPSSKSTSGGTAALGCLVKDYFPEPVTVSWNSGALTSGVHTFPAVLQSSGLYSLSSVVTVPSSSLGTQTYICNVNHKPSNTKVDKRVEPKSCDKTHTCPPCPAPELLAGPSVFLFPPKPKDVLMISRTPEVTCVVVDVSHEEPEVKFNWYVDGVEVHNAKTKPREEQYNATYRVVSVLPVLHQDWLNGKEYKCKVSNDALPAPEEETISKAKGQPREPQVYTLPPSREEMTKNQVSLTCLVKGFYPSDIAVEWESNGQPENNYKTTPPVLDSDGSFFLYSKLTVDKSRWQQGNVFSCSVMHEALHAHTTREELSLSP
light: B1 light with N33T, W34Y
notes: Heterodimerized IgG1 Fc variant with N434A/Y436T/Q438R/S440E
B3: 04H1654-KT473/04L1612-lam1//04H1656-HT482/04L1612-lam1 (antibody, IgG1)
heavy 1: B1 heavy 1 with E337I, N439A, Y441T, Q443R, S445E
heavy 2: B2 heavy 2 with A335K, E337D
light: B1 light with N33T, W34Y
notes: as for B2
B4: 04H1654-KT481/04L1610-lam1//04H1656-HT498/04L1610-lam1 (antibody, IgG1)
heavy 1: B1 heavy 1 with N439A, Y441T, Q443R, S445E
heavy 2: B2 heavy 2
light: B1 light
notes: as for B2
B5: 04H1654-KT461/04L1612-lam1//04H1656-HT443/04L1612-lam1 (antibody, human IgG1, lambda)
heavy 1: B1 heavy 1
heavy 2: B2 heavy 2 with A439N, T441Y, R443Q, E445S
light: B1 light with N33T, W34Y
notes: as for B1
B6: 04H1654-KT462/04L1612-lam1//04H1656-HT445/04L1612-lam1 (antibody, human IgG1, lambda)
heavy 1: B1 heavy 1 with E337I
heavy 2: B2 heavy 2 with A335K, E337D, A439N, T441Y, R443Q, E445S
light: B1 light with N33T, W34Y
notes: as for B1
B7: 04H1654-KT473/04L1610-lam1//04H1656-HT482/04L1610-lam1 (antibody, IgG1)
heavy 1: B1 heavy 1 with E337I, N439A, Y441T, Q443R, S445E
heavy 2: B2 heavy 2 with A335K, E337D
light: B1 light
notes: Heterodimerized IgG1 Fc variant with N434A/Y436T/Q438R/S440E; also called SW1610-ART6+ACT1

Columns and labels:
human FcRn = biological target: T4, human FcRn (human, UniProt P55899 24-290; P61769 21-119); assay: KD of 04H1637-G1m/04L1610-lam1 divided by KD of this antibody; SPR pH 6.0
T4 construct: Prepared by the method of WO 2010/107110; also called hFcRn
Method: The interaction between the generated antibodies and human FcRn was analyzed by the following method using Biacore T200. 50 mM Na-Phosphate, 150 mM NaCl, 0.05% Tween20 (pH 6.0) was used as the running buffer, and the assay was performed at 25° C. For the sensor chip, Series S SA (GE Healthcare) chips onto which CaptureSelect Human Fab-lambda Kinetics Biotin Conjugate (Thermo Fisher Scientific) was immobilized were used. The antibodies of interest were captured onto these chips and FcRn diluted in the running buffer was allowed to interact with them. Chips were regenerated with 10 mM Glycine-HCl (pH 1.5) and 25 mM NaOH, and assay was performed by repeatedly capturing antibodies. The dissociation constant for FcRn of each antibody was calculated using the steady state model, using Biacore T200 Evaluation Software 2.0.
“Relative value to KD between G1m and hFcRn” and “Relative value to KD between G1m and hFcγRs” are values obtained by dividing the KD value of 04H1637-G1m/04L1610-lam1 for hFcRn and for each FcγR by the KD value of each variant, respectively. “Relative binding amount” indicates the value obtained by dividing the binding amount of each variant to FcγRIIb by the binding amount of 04H1637-G1m/04L1610-lam1. […] It was shown that all of the generated heterodimerized antibodies had enhanced binding to FcγRIIa and FcγRIIIa as compared with 04H1637-G1m/04L1610-lam1 which has the constant region of native human IgG1. Furthermore, 04H1637-Kn462/04L1610-lam1//04H1637-H1441/04L1610-lam1, 04H1637-Kn462/04L1610-lam1//04H1637-H1445/04L1610-lam1, and 04H1637-Kn461/04L1610-lam1//04H1637-H1443/04L1610-lam1 were all shown to have enhanced binding to FcγRIIa compared to 04H1637-Kn125/04L1610-lam1//04H1637-H1076/04L1610-lam 1 which has the Fc region variant reported in WO 2013/002362.

[1] = biological target: T5, human FcγRIa extracellular domain, His-tagged (human, UniProt P12314 16-292); assay: KD of 04H1637-G1m/04L1610-lam1 divided by KD of this antibody; SPR pH 7.4
T5 construct: also called hFcγR Ia
Method: (§1) The interaction between the generated antibodies and human FcγRs was analyzed by the following method using Biacore T200. 50 mM Na-Phosphate, 150 mM NaCl, 0.05% Tween20 (pH 7.4) was used as the running buffer, and the assay was performed at 25° C. For the sensor chips, Series S SA (GE Healthcare) chips onto which CaptureSelect Human Fab-lambda Kinetics Biotin Conjugate (Thermo Fisher Scientific) was immobilized were used. The antibodies of interest were captured onto these chips and each FcγR diluted in the running buffer was allowed to interact with them. Chips were regenerated with 10 mM Glycine-HCl (pH 1.5) and 25 mM NaOH, and assay was performed by repeatedly capturing antibodies. The dissociation constants KD (mol/L) for FcγRs of each antibody were calculated using Biacore T200 Evaluation Software 2.0, using the 1:1 Langmuir binding model for FcγRIa and FcγRIIIa and the steady state affinity model for FcγRIIa. For FcγRIIb, the binding amount of FcγRIIb per unit amount of antibody was calculated by correcting the binding amount of FcγRIIb obtained from the sensorgram obtained by the measurement with the amount of antibody captured onto the chip surface.
(§2) “Relative value to KD between G1m and hFcRn” and “Relative value to KD between G1m and hFcγRs” are values obtained by dividing the KD value of 04H1637-G1m/04L1610-lam1 for hFcRn and for each FcγR by the KD value of each variant, respectively. “Relative binding amount” indicates the value obtained by dividing the binding amount of each variant to FcγRIIb by the binding amount of 04H1637-G1m/04L1610-lam1. […] It was shown that all of the generated heterodimerized antibodies had enhanced binding to FcγRIIa and FcγRIIIa as compared with 04H1637-G1m/04L1610-lam1 which has the constant region of native human IgG1.

[2] = biological target: T1, human FcγRIIa, type R, extracellular …; assay: as above
Method: as §1, §2

[3] = biological target: T2, human FcγRIIa, type H, extracellular …; assay: as above
Method: as §1, §2

[4] = biological target: T6, human FcγRIIIa, allotype F158, extracellular domain, His-tagged (human, UniProt P08637 17-208); assay: as above
T6 construct: extracellular domain; also called hFcγR IIIa F
Method: as §1, §2

[5] = biological target: T7, human FcγRIIIa, allotype V158, extracellular domain, His-tagged (human, UniProt P08637 17-208); assay: as above
T7 construct: extracellular domain; also called hFcγR IIIa V
Method: as §1, §2

[6] = biological target: T3, human FcγRIIb extracellular domain, …; assay: SPR Biacore T200, 25C, pH 7.4; FcγRIIb at 1000 nM, corrected by captured antibody
Method: as §1

[7] = biological target: T3, human FcγRIIb extracellular domain, …; assay: binding amount of this antibody divided by that of 04H1637-G1m/04L1610-lam1; SPR pH 7.4
Method: as §1, §2

T4 sequence (P55899 24-290 limits assumed, chain 1 of 2): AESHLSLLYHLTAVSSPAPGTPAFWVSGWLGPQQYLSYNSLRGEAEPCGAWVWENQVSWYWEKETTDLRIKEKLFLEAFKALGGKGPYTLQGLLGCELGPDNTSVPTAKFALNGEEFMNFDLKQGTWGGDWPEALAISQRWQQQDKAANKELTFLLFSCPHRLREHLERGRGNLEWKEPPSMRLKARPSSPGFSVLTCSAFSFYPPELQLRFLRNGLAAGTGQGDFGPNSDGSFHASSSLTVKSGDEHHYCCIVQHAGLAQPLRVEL
T4 sequence (P61769 21-119 limits assumed, chain 2 of 2): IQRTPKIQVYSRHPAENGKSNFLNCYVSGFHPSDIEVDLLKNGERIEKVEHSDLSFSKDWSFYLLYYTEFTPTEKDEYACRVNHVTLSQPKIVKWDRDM
T6 sequence (P08637 17-208): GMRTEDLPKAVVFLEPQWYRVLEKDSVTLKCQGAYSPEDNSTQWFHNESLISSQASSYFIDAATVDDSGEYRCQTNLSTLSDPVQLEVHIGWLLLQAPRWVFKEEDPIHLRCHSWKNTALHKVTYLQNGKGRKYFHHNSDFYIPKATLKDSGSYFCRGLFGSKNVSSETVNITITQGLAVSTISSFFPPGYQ
T7 sequence (P08637 17-208 F176V): as the sequence (P08637 17-208) above, with F160V counted along it
T5 sequence (P12314 16-292): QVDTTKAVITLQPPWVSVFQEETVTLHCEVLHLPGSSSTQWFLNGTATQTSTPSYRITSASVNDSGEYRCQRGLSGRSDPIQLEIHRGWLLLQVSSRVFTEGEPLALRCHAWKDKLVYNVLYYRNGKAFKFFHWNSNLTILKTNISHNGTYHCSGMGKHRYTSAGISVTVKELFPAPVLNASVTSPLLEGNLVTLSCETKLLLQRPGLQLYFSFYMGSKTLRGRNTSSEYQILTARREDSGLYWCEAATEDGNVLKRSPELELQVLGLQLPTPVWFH

Row | Binder | Relative value to KD between G1m and hFcRn (human FcRn) | Relative value to KD between G1m and hFcγRs [1] | Relative value to KD between G1m and hFcγRs [2] | Relative value to KD between G1m and hFcγRs [3] | Relative value to KD between G1m and hFcγRs [4] | Relative value to KD between G1m and hFcγRs [5] | Binding amount [6] | Relative binding amount [7]
1 | B1 | 0.9 ratio | 1.5 ratio | 8.4 ratio | 7.3 ratio | 526 ratio | 156 ratio | 0.025 RU per RU of captured antibody | 3.1 ratio
2 | B2 | 2.2 ratio | 1.1 ratio | 7.6 ratio | 6.4 ratio | 479 ratio | 145 ratio | 0.022 RU per RU of captured antibody | 2.8 ratio
3 | B3 | 2.1 ratio | 1 ratio | 13.8 ratio | 16.2 ratio | 355 ratio | 110 ratio | 0.026 RU per RU of captured antibody | 3.2 ratio
4 | B4 | 2.3 ratio | 1.5 ratio | 7.7 ratio | 6.5 ratio | 495 ratio | 152 ratio | 0.022 RU per RU of captured antibody | 2.7 ratio
5 | B5 | 0.8 ratio | 1.3 ratio | 8.2 ratio | 7.1 ratio | 537 ratio | 159 ratio | 0.025 RU per RU of captured antibody | 3.1 ratio
6 | B6 | 0.8 ratio | 1.2 ratio | 14.2 ratio | 16.1 ratio | 408 ratio | 106 ratio | 0.028 RU per RU of captured antibody | 3.4 ratio
7 | B7 | 2.3 ratio | 1.1 ratio | 13.9 ratio | 18 ratio | 363 ratio | 115 ratio | 0.026 RU per RU of captured antibody | 3.2 ratio
